Reference: paper PMC7925596, “Exploring targeting peptide-shell interactions in encapsulin nanocompartments” (Scientific Reports, 2021)

B1: mNeonGreen C-terminally fused to the native T3 targeting peptide (peptide)
chain: PLTVGSLRRGG
notes: native 11-residue targeting peptide of the M. xanthus (T3) encapsulin system; The targeting peptide is at the C-terminus of mNeonGreen; also called mNeonGreenTP (native T3 TP); native T3 TP; source: E. coli One shot BL21 (DE3) Star, pCDF-Duet1, IPTG induced before encapsulin; co-purified with encapsulin particles; not shown: mNeonGreen, N-terminal, kept
B2: Thermotoga maritima encapsulin (T1 encapsulin shell) (natural protein, T. maritima)
chain: MEFLKRSFAPLTEKQWQEIDNRAREIFKTQLYGRKFVDVEGPYGWEYAAHPLGEVEVLSDENEVVKWGLRKSLPLIELRATFTLDLWELDNLERGKPNVDLSSLEETVRKVAEFEDEVIFRGCEKSGVKGLLSFEERKIECGSTPKDLLEAIVRALSIFSKDGIEGPYTLVINTDRWINFLKEEAGHYPLEKRVEECLRGGKIITTPRIEDALVVSERGGDFKLILGQDLSIGYEDREKDAVRLFITETFTFQVVNPEALILLKF
notes: encapsulin shell protein of Thermotoga maritima, T1 icosahedral shell, 24 nm, 60 subunits; Cloned into pBAD/HisA cut with NcoI and XhoI; also called T. maritima encapsulin protein; source: E. coli One shot BL21 (DE3) Star, pBAD/HisA, L-arabinose induced; purified as assembled particles (PEG-8000 precipitation, SEC, anion exchange); copies: 60
B3: mNeonGreen C-terminally fused to the native T1 targeting peptide (peptide)
chain: NTGGDLGIRK
notes: native targeting peptide of the T. maritima (T1) encapsulin system, from the C-terminus of the native cargo protein; The targeting peptide is at the C-terminus of mNeonGreen; also called mNeonGreenTP (native T1 TP); native T1 TP; source: E. coli One shot BL21 (DE3) Star, pCDF-Duet1, IPTG induced before encapsulin; co-purified with encapsulin particles; not shown: mNeonGreen, N-terminal, kept
B4: mNeonGreen C-terminally fused to the T1 consensus targeting peptide (peptide)
chain: DGSLGIGSLKG
notes: consensus targeting peptide found in T1 encapsulin systems; The targeting peptide is at the C-terminus of mNeonGreen; also called mNeonGreenTP (T1 consensus TP); T1 consensus TP; source: E. coli One shot BL21 (DE3) Star, pCDF-Duet1, IPTG induced before encapsulin; co-purified with encapsulin particles; not shown: mNeonGreen, N-terminal, kept

Experiments:
[1] = molecular target: T1, Myxococcus xanthus encapsulin (T3 encapsulin shell) (M. xanthus, UniProt Q1D6H4 1-287); assay: bulk fluorescence of purified encapsulin particles (loading percentage); particles loaded in E. coli and purified; 15 ug/mL in 20 mM Tris, 100 mM NaCl, pH 8 with 1 mg/mL BSA; plate reader Ex 500 nm, Em 530 nm, 20 C; loading = percentage of occupied TP binding sites (T1: 60, T3: 180), mNeonGreen standard curve; triplicates; settings: partners not purified
T1 construct: encapsulin shell protein of Myxococcus xanthus, T3 icosahedral shell, 32 nm, 180 subunits; Cloned into pBAD/HisA cut with NcoI and XhoI; also called M. xanthus encapsulin protein; source: E. coli One shot BL21 (DE3) Star, pBAD/HisA, L-arabinose induced; purified as assembled particles (PEG-8000 precipitation, SEC, anion exchange); copies: 180

[2] = molecular target: the molecule itself; assay: negative stain transmission electron microscopy; purified particles, 1 mg/mL in low salt buffer, uranyl formate stain, 80 keV
[3] = molecular target: B2; assay: bulk fluorescence of purified encapsulin particles (loading percentage); particles loaded in E. coli and purified; 15 ug/mL in 20 mM Tris, 100 mM NaCl, pH 8 with 1 mg/mL BSA; plate reader Ex 500 nm, Em 530 nm, 20 C; loading = percentage of occupied TP binding sites (T1: 60, T3: 180), mNeonGreen standard curve; triplicates; settings: partners not purified

T1 sequence (Q1D6H4 whole entry): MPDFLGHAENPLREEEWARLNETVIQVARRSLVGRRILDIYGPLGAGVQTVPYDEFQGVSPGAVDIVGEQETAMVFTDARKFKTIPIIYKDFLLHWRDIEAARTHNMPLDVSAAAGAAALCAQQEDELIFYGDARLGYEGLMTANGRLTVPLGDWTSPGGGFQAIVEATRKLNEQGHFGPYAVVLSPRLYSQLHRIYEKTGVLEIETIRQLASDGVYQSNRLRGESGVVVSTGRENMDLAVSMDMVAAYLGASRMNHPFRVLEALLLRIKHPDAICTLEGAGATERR

Binder	cargo proteins per shell [3]	further results
B1	–	cargo proteins per shell [1]: ~45 cargo proteins per shell
B2	–	binding result [2]: binds
B3	~2 cargo proteins per shell	–
B4	~2 cargo proteins per shell	–
